Measurements from publication PMC8406272.

What was measured:
[1] = molecular target: T1, Lsr2 (Streptomyces venezuelae ATCC 10712) (UniProt F2R951); test: EMSA; details: 10 mM Tris pH 7.8, 5 mM MgCl2, 60 mM KCl, 10% glycerol; Lsr2 (EMSA, AFM): room temperature 10 min then ice 30 min; CmlR: 30 C 30 min
T1 sequence: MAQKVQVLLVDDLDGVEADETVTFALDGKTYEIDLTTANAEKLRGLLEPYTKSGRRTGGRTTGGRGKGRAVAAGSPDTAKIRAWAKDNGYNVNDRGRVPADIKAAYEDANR

[2] = molecular target: T2, CmlR (Streptomyces venezuelae ATCC 10712) (UniProt F2RB72); test: EMSA; details: 10 mM Tris pH 7.8, 5 mM MgCl2, 60 mM KCl, 10% glycerol; Lsr2 (EMSA, AFM): room temperature 10 min then ice 30 min; CmlR: 30 C 30 min
T2 sequence: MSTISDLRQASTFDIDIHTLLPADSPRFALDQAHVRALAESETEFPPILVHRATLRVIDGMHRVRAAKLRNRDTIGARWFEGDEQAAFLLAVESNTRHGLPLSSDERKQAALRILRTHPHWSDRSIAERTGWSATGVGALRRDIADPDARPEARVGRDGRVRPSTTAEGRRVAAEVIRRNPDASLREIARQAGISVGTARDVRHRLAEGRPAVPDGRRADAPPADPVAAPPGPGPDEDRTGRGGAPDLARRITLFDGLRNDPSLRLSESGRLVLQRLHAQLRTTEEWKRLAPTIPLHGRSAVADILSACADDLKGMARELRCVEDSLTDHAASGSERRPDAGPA

Sequence | binding [1] | binding [2]
GGAGACGTTCAGGATCGCGGAACTCTGCTCAGTGGATTTCCGCAGCAGTTTGACCGCTTCCCGGCAGCAGTTCAGCACGGCGAAGAAATTGATGTCGAATATCTTCCGGGAAACCTCGTCCGGGGTCGTCATGAAATGGTTCATCGACGA (double strand) [sven0926 probe] | binds | 
GGATTTTCCTGAACGCCGGAGTCGGGTGACCGATAACCGGACACTTTCCGGATTTCGTGTCCGGATTGAGCCCGGTTATACGTCGAATGCCTCAAGT (double strand) [sven0904-0905 probe] | binds | 
GGCCCACCCCTTCCTTCACTTCCCTTTGCGGGCTCTTCCCTTTGCGGGCTCGGCCCTTCCCGGGTCCGGCGTCTCGAAGTCTGTGGATATCGGTCGCGGGCCGCAAGGGTGTGCAGATCACCACCCCGTGCAACTGAAGGAACCGGACAGTTGAACAGGGCGGTGAACCGCGCGGACTGAACGACCTTGCGTGGGCCGGGGGCGTATGACATAAAAATCCAGGCGTCGGCCCGGAGCACGACTCGGCCGGCGACGCGATCTGTTCTGTCT (double strand) [sven0924-0925 promoter probe] |  | binds
GGTGGATTCCGTAGTCATGGCGCGGACCTTACAGCGATGATCCACGATCATCCGACCGGCTTGTCTATTTTCAGCCAGTCCGACTCGCACCCGGCTCGAACGAAGCCGTGGCCCGAGCGTCACGGAAAGCGTGACACATGTCAGCGCGGCGCCTTTTTCCCTGTTCCGCCGCAATTCCCCGGCACATGATTACGGCCGGAAGCGAAACACATCACCAGGACGTTGTTTCTCGAATTCTCG (double strand) [sven5133 promoter probe] |  | no binding
